The assay deals with T1, GLD-3L with C-terminal His tag, MBP cleaved off (C. elegans, UniProt Q95ZK7-1 1-969).
T1 construct: GLD-3, C. elegans, isoform GLD-3L; also called GLD-3L^6His; source: insect cells, purified on amylose beads, MBP cleaved off by PreScission protease; not shown: MBP, N-terminal, cleaved; His6, C-terminal, kept
T1 sequence (looked up): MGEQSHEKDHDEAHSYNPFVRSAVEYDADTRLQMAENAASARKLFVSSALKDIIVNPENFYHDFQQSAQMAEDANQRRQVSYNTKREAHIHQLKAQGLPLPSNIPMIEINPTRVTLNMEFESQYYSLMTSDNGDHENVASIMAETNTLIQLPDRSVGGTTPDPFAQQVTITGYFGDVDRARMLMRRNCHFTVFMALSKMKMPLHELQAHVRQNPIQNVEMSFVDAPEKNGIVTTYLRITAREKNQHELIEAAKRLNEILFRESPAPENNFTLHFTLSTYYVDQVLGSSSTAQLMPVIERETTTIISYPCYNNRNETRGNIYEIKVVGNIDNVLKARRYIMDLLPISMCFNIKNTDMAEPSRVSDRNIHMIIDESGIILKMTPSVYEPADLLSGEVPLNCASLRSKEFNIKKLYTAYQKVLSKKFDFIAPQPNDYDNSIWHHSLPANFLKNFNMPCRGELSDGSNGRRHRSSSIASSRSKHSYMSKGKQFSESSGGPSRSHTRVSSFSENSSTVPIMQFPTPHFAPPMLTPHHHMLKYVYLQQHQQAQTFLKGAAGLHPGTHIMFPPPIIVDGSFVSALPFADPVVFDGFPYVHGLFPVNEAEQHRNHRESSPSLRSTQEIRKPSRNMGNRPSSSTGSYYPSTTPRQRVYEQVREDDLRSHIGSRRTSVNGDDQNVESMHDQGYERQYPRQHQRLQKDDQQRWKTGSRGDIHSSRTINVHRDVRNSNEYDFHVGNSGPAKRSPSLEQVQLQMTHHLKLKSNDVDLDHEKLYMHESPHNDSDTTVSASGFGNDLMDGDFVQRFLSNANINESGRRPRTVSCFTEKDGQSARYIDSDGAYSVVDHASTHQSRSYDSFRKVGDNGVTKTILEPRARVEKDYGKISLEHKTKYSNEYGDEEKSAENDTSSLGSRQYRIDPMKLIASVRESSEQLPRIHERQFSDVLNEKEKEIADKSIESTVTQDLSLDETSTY
The experiment in a line: pull-down; competition assay; MBP-FBF-1 immobilized on amylose beads, loaded with GLD-3L, then challenged with increasing amounts of free GLS-1; washed; GLD-3L on beads quantified from Western blot bands. Particulars: both partners purified.

B1: MBP-FBF-1 with C-terminal His tag, from insect cells (natural protein, C. elegans, UniProt Q9N5M6 1-614, looked up)
chain: MDQSKMRYTNQFRKTPQKPTSTEVGNHHTPAHSPMAQHETSMWNFNSLNPYFSMLNMNDGMNYARHQQNHIVTSRPPTPLTDLMSLRSFQSFPNVFMPVSRSRTSSFIQSDTDSSRLEPDDFSQNVRYCSTEIDRNNSSSKNDHLKYSRPALSRNSRSFTRSNNVLPTWSLDSNGEMRSRLSLSEVLDSGDLMKFAVDKTGCQFLEKAVKGSLTSYQKFQLFEQVIGRKDDFLKLSTNIFGNYFVQEIIGMSLTTYDDDNIKRQEKLKNFISSQMTDMCLDKFACRVIQSSLQNMDLSLACKLVQALPRDARLIAICVDQNANHVIQKVVAVIPLKNWEFIVDFVATPEHLRQICFDKYGCRVVQTIIEKLTADSINVDLTSAAQHLRERALQRLMTSVTNRCQELATNEYANYIIQHIVSNDDLAVYRECIIEKCLMRNLLSLSQEKFASHVVEKAFLHAPMELLAEMMDEIFDGYMPHPGTGKDALDIMMFHQFGNYVVQCMLTICCDAVSGRRQTKEGSYDHANSFQVWLKKLHSRVTKERHRLSRFSSGKKMIETLAHLRSTHPIYGLQSSGHESFKTDCFSTASEHDGLELEKNGIEEGNLRLMRTFSP
notes: FBF-1, PUF protein, C. elegans; also called MBP-FBF-1^6His; source: insect cells, purified on amylose beads; not shown: His6, C-terminal, kept
For the molecule B1, the binding result was “binds”.

The values are drawn from publication PMC2679207, “GLS-1, a Novel P Granule Component, Modulates a Network of Conserved RNA Regulators to Influence Germ Cell Fate Decisions” (PLoS Genetics, 2009).
